Assay results reported in the supplement of paper PMC11316812.
± gives the standard deviation of the averaged measurements.

Experiments:
MCF7 = assay: percentage of EdU-negative (G0-arrested) nuclei per well, 72 h; higher = more G0 arrest; settings: reference: sequence is the full UniProt precursor, the tested protein was the secreted form or ectodomain
hTERT-HMEC = assay: as above; settings: reference: sequence is the full UniProt precursor, the tested protein was the secreted form or ectodomain
[1] = protein concentration 0.0225 µM
[2] = protein concentration 0.021155 µM
[3] = protein concentration 0.21155 µM
[4] = protein concentration 0.0357143 µM
[5] = protein concentration 0.357143 µM
[6] = protein concentration 0.0111429 µM
[7] = protein concentration 0.111429 µM
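Also: secreted proteins added to cultured cells, EdU pulse at the end, nuclei found by Hoechst imaging, EdU status from nuclear versus surrounding ring intensity ratio, PBS as neutral control.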

Sequence: MALPSLLLLVAALAGGVRPPGARNLTLAVVLPEHNLSYAWAWPRVGPAVALAVEALGRALPVDLRFVSSELEGACSEYLAPLSAVDLKLYHDPDLLLGPGCVYPAASVARFASHWRLPLLTAGAVASGFSAKNDHYRTLVRTGPSAPKLGEFVVTLHGHFNWTARAALLYLDARTDDRPHYFTIEGVFEALQGSNLSVQHQVYAREPGGPEQATHFIRANGRIVYICGPLEMLHEILLQAQRENLTNGDYVFFYLDVFGESLRAGPTRATGRPWQDNRTREQAQALREAFQTVLVITYREPPNPEYQEFQNRLLIRAREDFGVELGPSLMNLIAGCFYDGILLYAEVLNETIQEGGTREDGLRIVEKMQGRRYHGVTGLVVMDKNNDRETDFVLWAMGDLDSGDFQPAAHYSGAEKQIWWTGRPIPWVKGAPPSDNPPCAFDLDDPSCDKTPLSTLAIVALGTGITFIMFGVSSFLIFRKLMLEKELASMLWRIRWEELQFGNSERYHKGAGSRLTLSLRGSSYGSLMTAHGKYQIFANTGHFKGNVVAIKHVNKKRIELTRQVLFELKHMRDVQFNHLTRFIGACIDPPNICIVTEYCPRGSLQDILENDSINLDWMFRYSLINDLVKGMAFLHNSIISSHGSLKSSNCVVDSRFVLKITDYGLASFRSTAEPDDSHALYAKKLWTAPELLSGNPLPTTGMQKADVYSFGIILQEIALRSGPFYLEGLDLSPKEIVQKVRNGQRPYFRPSIDRTQLNEELVLLMERCWAQDPAERPDFGQIKGFIRRFNKEGGTSILDNLLLRMEQYANNLEKLVEERTQAYLEEKRKAEALLYQILPHSVAEQLKRGETVQAEAFDSVTIYFSDIVGFTALSAESTPMQVVTLLNDLYTCFDAIIDNFDVYKVETIGDAYMVVSGLPGRNGQRHAPEIARMALALLDAVSSFRIRHRPHDQLRLRIGVHTGPVCAGVVGLKMPRYCLFGDTVNTASRMESNGQALKIHVSSTTKDALDELGCFQLELRGDVEMKGKGKMRTYWLLGERKGPPGLL
- percentage of EdU-negative (MCF7; [1]): 28 ± 1%
- percentage of EdU-negative (MCF7; protein concentration 0.225 µM): 28.8 ± 1.5%
- percentage of EdU-negative (hTERT-HMEC; [1]): 4.62 ± 0.46%
- percentage of EdU-negative (hTERT-HMEC; protein concentration 0.225 µM): 6.68 ± 1.3%

Sequence: MSRQLLPVLLLLLLRASCPWGQEQGARSPSEEPPEEEIPKEDGILVLSRHTLGLALREHPALLVEFYAPWCGHCQALAPEYSKAAAVLAAESMVVTLAKVDGPAQRELAEEFGVTEYPTLKFFRNGNRTHPEEYTGPRDAEGIAEWLRRRVGPSAMRLEDEAAAQALIGGRDLVVIGFFQDLQDEDVATFLALAQDALDMTFGLTDRPRLFQQFGLTKDTVVLFKKFDEGRADFPVDEELGLDLGDLSRFLVTHSMRLVTEFNSQTSAKIFAARILNHLLLFVNQTLAAHRELLAGFGEAAPRFRGQVLFVVVDVAADNEHVLQYFGLKAEAAPTLRLVNLETTKKYAPVDGGPVTAASITAFCHAVLNGQVKPYLLSQEIPPDWDQRPVKTLVGKNFEQVAFDETKNVFVKFYAPWCTHCKEMAPAWEALAEKYQDHEDIIIAELDATANELDAFAVHGFPTLKYFPAGPGRKVIEYKSTRDLETFSKFLDNGGVLPTEEPPEEPAAPFPEPPANSTMGSKEEL
- percentage of EdU-negative (MCF7; [2]): 34 ± 1.9%
- percentage of EdU-negative (MCF7; [3]): 26.76 ± 0.05%
- percentage of EdU-negative (hTERT-HMEC; [2]): 5.52 ± 0.95%
- percentage of EdU-negative (hTERT-HMEC; [3]): 5.36 ± 0.59%

Sequence: MKASSLAFSLLSAAFYLLWTPSTGLKTLNLGSCVIATNLQEIRNGFSEIRGSVQAKDGNIDIRILRRTESLQDTKPANRCCLLRHLLRLYLDRVFKNYQTPDHYTLRKISSLANSFLTIKKDLRLCHAHMTCHCGEEAMKKYSQILSHFEKLEPQAAVVKALGELDILLQWMEETE [Q9NYY1]
- percentage of EdU-negative (MCF7; [1]): 25.2 ± 0.85%
- percentage of EdU-negative (MCF7; protein concentration 0.225 µM): 27.2 ± 2.3%
- percentage of EdU-negative (hTERT-HMEC; [1]): 4.59 ± 0.14%
- percentage of EdU-negative (hTERT-HMEC; protein concentration 0.225 µM): 8.36 ± 0.57%

Sequence: MWLLVSVILISRISSVGGEAMFCDFPKINHGILYDEEKYKPFSQVPTGEVFYYSCEYNFVSPSKSFWTRITCAEEGWSPTPKCLRLCFFPFVENGHSESSGQTHLEGDTVQIICNTGYRLQNNENNISCVERGWSTPPKCRSTISAEKCGPPPPIDNGDITSFLLSVYAPGSSVEYQCQNLYQLEGNNQITCRNGQWSEPPKCLDPCVISQEIMEKYNIKLKWTNQQKLYSRTGDIVEFVCKSGYHPTKSHSFRAMCQNGKLVYPSCEEK
- percentage of EdU-negative (MCF7; [4]): 26.5 ± 2.9%
- percentage of EdU-negative (MCF7; [5]): 27.9 ± 1.9%
- percentage of EdU-negative (hTERT-HMEC; [4]): 5.7 ± 0.61%
- percentage of EdU-negative (hTERT-HMEC; [5]): 17.5 ± 3.6%

Sequence: MALGLLIAVPLLLQAAPRGAAHYEMMGTCRMICDPYTAAPGGEPPGAKAQPPGPSTAALEVMQDLSANPPPPFIQGPKGDPGRPGKPGPRGPPGEPGPPGPRGPPGEKGDSGRPGLPGLQLTAGTASGVGVVGGGAGVGGDSEGEVTSALSATFSGPKIAFYVGLKSPHEGYEVLKFDDVVTNLGNHYDPTTGKFSCQVRGIYFFTYHILMRGGDGTSMWADLCKNGQVRASAIAQDADQNYDYASNSVVLHLDSGDEVYVKLDGGKAHGGNNNKYSTFSGFLLYPD [Q7Z5L3]
- percentage of EdU-negative (MCF7; [6]): 22.8 ± 1.6%
- percentage of EdU-negative (MCF7; [7]): 30 ± 0.7%
- percentage of EdU-negative (hTERT-HMEC; [6]): 5.39 ± 0.86%
- percentage of EdU-negative (hTERT-HMEC; [7]): 5.7 ± 1.1%
